In this assay the target is human plasmin (formed from plasminogen incubated with equimolar SAK or RGD-SAK) (human).

This is an account of results in PMC2194782.

Regarding “staphylokinase (SAK) (from UniProt P68802 28-163) (natural protein)”, the kcat/Km of plasminogen activation by the preformed equimolar SAK-plasmin complex, monitored with S-2251 was 33000 M⁻¹ s⁻¹.

In the case of “RGD-SAK (staphylokinase with K35 replaced by Arg) (from UniProt P68802 28-163) (natural protein)”, the kcat/Km of plasminogen activation by the preformed equimolar RGD-SAK-plasmin complex, monitored with S-2251 is 37000 M⁻¹ s⁻¹.
